T1: R.DpnI R231A (UniProt P0A460 1-254, R231A)
T1 sequence: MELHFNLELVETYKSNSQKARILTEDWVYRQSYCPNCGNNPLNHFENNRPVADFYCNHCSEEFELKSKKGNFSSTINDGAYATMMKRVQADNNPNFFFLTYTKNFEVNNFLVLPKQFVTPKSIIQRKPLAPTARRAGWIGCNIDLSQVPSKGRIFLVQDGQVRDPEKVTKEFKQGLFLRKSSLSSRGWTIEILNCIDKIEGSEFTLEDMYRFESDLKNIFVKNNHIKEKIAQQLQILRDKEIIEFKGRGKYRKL

T2: R.DpnI wH domain (UniProt P0A460 181-254)
T2 sequence: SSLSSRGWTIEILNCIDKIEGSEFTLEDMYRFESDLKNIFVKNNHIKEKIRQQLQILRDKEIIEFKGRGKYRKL

B1: nmDNA (dsDNA)
DNA 1: ATATGGGATCGTCAGTCAGCG
DNA 2: CGCTGACTGACGATCCCATAT
B2: mDNA (dsDNA)
DNA 1: ATATGGGATCGTCAGTCAGCG
DNA 2: CGCTGACTGACGATCCCATAT
modifications: m6A at position 8 of strand 1 and position 13 of strand 2 (5'-3')
B3: hmDNA (dsDNA)
DNA 1: ATATGGGATCGTCAGTCAGCG
DNA 2: CGCTGACTGACGATCCCATAT
modifications: m6A in GATC on one strand only (which strand not recoverable from text)

Legend:
R.DpnI R231A = molecular target: T1, R.DpnI R231A; assay: filter binding
R.DpnI wH domain = molecular target: T2, R.DpnI wH domain; assay: filter binding

Row | Binder | binding result (R.DpnI R231A) | binding signal (R.DpnI wH domain) [counts]
1 | B1 | no binding | 
2 | B2 |  | 2e+06
3 | B3 | no binding | 
